Target: T1, His6-SlyA (Escherichia coli K-12 MG1655?) (UniProt P0A8W3)
T1 sequence: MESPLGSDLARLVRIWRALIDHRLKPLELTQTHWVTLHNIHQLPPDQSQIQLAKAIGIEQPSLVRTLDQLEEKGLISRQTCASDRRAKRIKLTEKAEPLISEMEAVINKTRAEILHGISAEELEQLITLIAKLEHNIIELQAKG
Experiment: EMSA
Details: 20 µl: 10 mM Tris/HCl pH 7.5, 50 mM KCl, 1 mM DTT, poly(dI-dC) (1 µg), ~1 nM biotin-DNA, 0-500 nM SlyA, 25 °C, 30 min

Sequence | binding | DNA binding
GATGGGGATAAGCAGAGCGCTTATCCCCGGCAAAGAGCAATAACCCTTCTGCGATCCCTGCCGCCTTCGTCAAAAGTATCGACGGGGATCGCTACCAGATTAACCCGAATCGGCATGGAGTCAACGACGG (double strand) [sgcA-sgcQ intergenic region] | no binding | –
GATGTATGTTCTAATAAAATAGATTGGGTGGGTTGTATATTGACGTTAGTATAAATAGTATTAATGCCGCTTGCATGAATCAAGCAAAATTTATTTATATTAGTAATATGTATTTAATTAATAAATACATACATTATTTTTATGATTAAGGATAATCAATAATTAAAACAGGAAGTTCT (double strand) [gspA-gspC intergenic region] | – | binds
GCAAGCACCTTAAAATCACCATCATACACTAAATCAGTAAGTTGGCAGCATTACCGAAATCCCCATCCTTTAGGGCAGTGAGGATGTCAATAATAGCAGACCACATCATGAGTCATTCTGACCGACACATGCCAGAAGCAGAGGCTCCATCCCATTTTATACCTACCTTATAACACTTAGAAAAACAACATGTTAAAAATGTCTATTGGAAACAATTTTATTTCCAATTGTAATGATAACCATTCTCATATTAATATGACTACGTGATAATTAACTTTTGATGCACTCCGC (double strand) [fecI-insA-7 intergenic region] | – | binds
TGTTGCTAATAGTTAAATCGCGAATCATAAAAAGCAAAGGATCTTTTAACGAAATGTTAACTATGCGATCTGTATAGCAACTGCGGAAAACATTAATGCACTGATAAATAATGATTTATAAAAATAGGGTGCGAAATCCGTCACAGTTCAAACATACAAAATTTGTGATTTTACTTAACTATTGTGTAACTTTCATAAAACAATGTGATTCGTGTTTTTAATTAATTCACGAAAACTGGAATCGTAAAGGTGATGAC (double strand) [paaA-paaZ intergenic region] | – | binds
